B1: NLV3 TCR beta chain (CDR3β only) (parent)
chain: ASSPTGGSPSPLH
partner: MLVPMVATV
B2: NLV2 TCR alpha chain (CDR3α only) (parent)
chain: AGPMKTSYDKVI

Variants of: B1
Test: T-Switch: Jurkat TCRβ−/− cells expressing a CDR3 saturation-mutagenesis library, stained with two peptide-HLA-A*02:01 tetramers (original and novel peptide) plus anti-CD3, FACS-sorted into four gates, gDNA sequenced
Conditions: with HLA-A*02:01 with peptide … (NLV 3-1, the original bait), tetramers 1 µg/mL, 30 min on ice, DP and SW gates expanded about 10 days between rounds ('two to three rounds of selection' in the Methods), gate SP: higher = more of the variant in the gate that binds the original peptide and not the novel one = retained original binding. Fold enrichment of the CDR3 variant in one FACS gate of a two-tetra, unresolved parent, parent is a CDR3 fragment, scale: fold enrichment, numbering: sequential-on-construct, sequence …

Row | Variant | enrichment
1 | […] (CDR3 as printed); T5L derived by comparing it with the table's wild-type CDR3 ASSPTGGSPSPLH | 9.97
2 | […] (CDR3 as printed); S3W derived by comparing it with the table's wild-type CDR3 ASSPTGGSPSPLH | 0
3 | […] (CDR3 as printed); L12P derived by comparing it with the table's wild-type CDR3 ASSPTGGSPSPLH | 0
4 | […] (CDR3 as printed); T5K derived by comparing it with the table's wild-type CDR3 ASSPTGGSPSPLH | 0
5 | […] (CDR3 as printed); T5I derived by comparing it with the table's wild-type CDR3 ASSPTGGSPSPLH | 11.6
6 | […] (CDR3 as printed); P4Q derived by comparing it with the table's wild-type CDR3 ASSPTGGSPSPLH | 3.21
7 | […] (CDR3 as printed); P9G derived by comparing it with the table's wild-type CDR3 ASSPTGGSPSPLH | 0
8 | […] (CDR3 as printed); P4D derived by comparing it with the table's wild-type CDR3 ASSPTGGSPSPLH | 0
9 | […] (CDR3 as printed); S8T derived by comparing it with the table's wild-type CDR3 ASSPTGGSPSPLH | 0
10 | […] (CDR3 as printed); T5A derived by comparing it with the table's wild-type CDR3 ASSPTGGSPSPLH | 2.2
11 | […] (CDR3 as printed); L12H derived by comparing it with the table's wild-type CDR3 ASSPTGGSPSPLH | 0
12 | […] (CDR3 as printed); P9V derived by comparing it with the table's wild-type CDR3 ASSPTGGSPSPLH | 3.5
13 | […] (CDR3 as printed); S10R derived by comparing it with the table's wild-type CDR3 ASSPTGGSPSPLH | 0
14 | […] (CDR3 as printed); P11D derived by comparing it with the table's wild-type CDR3 ASSPTGGSPSPLH | 0
15 | […] (CDR3 as printed); A1W derived by comparing it with the table's wild-type CDR3 ASSPTGGSPSPLH | 0
16 | […] (CDR3 as printed); L12S derived by comparing it with the table's wild-type CDR3 ASSPTGGSPSPLH | 1.12
17 | […] (CDR3 as printed); S10I derived by comparing it with the table's wild-type CDR3 ASSPTGGSPSPLH | 0
18 | […] (CDR3 as printed); G6C derived by comparing it with the table's wild-type CDR3 ASSPTGGSPSPLH | 0
19 | […] (CDR3 as printed); S2T derived by comparing it with the table's wild-type CDR3 ASSPTGGSPSPLH | 4.08
20 | […] (CDR3 as printed); G6I derived by comparing it with the table's wild-type CDR3 ASSPTGGSPSPLH | 0
21 | […] (CDR3 as printed); S8Y derived by comparing it with the table's wild-type CDR3 ASSPTGGSPSPLH | 8.08
22 | […] (CDR3 as printed); L12D derived by comparing it with the table's wild-type CDR3 ASSPTGGSPSPLH | 0
23 | […] (CDR3 as printed); G7R derived by comparing it with the table's wild-type CDR3 ASSPTGGSPSPLH | 0
24 | […] (CDR3 as printed); P9T derived by comparing it with the table's wild-type CDR3 ASSPTGGSPSPLH | 0.619
25 | […] (CDR3 as printed); S3R derived by comparing it with the table's wild-type CDR3 ASSPTGGSPSPLH | 0

Row | Variant | enrichment
26 | […] (CDR3 as printed); G7W derived by comparing it with the table's wild-type CDR3 ASSPTGGSPSPLH | 0
27 | […] (CDR3 as printed); S8H derived by comparing it with the table's wild-type CDR3 ASSPTGGSPSPLH | 0
28 | […] (CDR3 as printed); A1K derived by comparing it with the table's wild-type CDR3 ASSPTGGSPSPLH | 0
29 | […] (CDR3 as printed); G7C derived by comparing it with the table's wild-type CDR3 ASSPTGGSPSPLH | 0
30 | […] (CDR3 as printed); G7E derived by comparing it with the table's wild-type CDR3 ASSPTGGSPSPLH | 0.336
31 | […] (CDR3 as printed); A1C derived by comparing it with the table's wild-type CDR3 ASSPTGGSPSPLH | 1.12
32 | […] (CDR3 as printed); S2E derived by comparing it with the table's wild-type CDR3 ASSPTGGSPSPLH | 0
33 | […] (CDR3 as printed); L12I derived by comparing it with the table's wild-type CDR3 ASSPTGGSPSPLH | 1.14
34 | […] (CDR3 as printed); P11N derived by comparing it with the table's wild-type CDR3 ASSPTGGSPSPLH | 0
35 | […] (CDR3 as printed); P4H derived by comparing it with the table's wild-type CDR3 ASSPTGGSPSPLH | 0
36 | […] (CDR3 as printed); A1L derived by comparing it with the table's wild-type CDR3 ASSPTGGSPSPLH | 0
37 | […] (CDR3 as printed); L12F derived by comparing it with the table's wild-type CDR3 ASSPTGGSPSPLH | 0
38 | […] (CDR3 as printed); H13Y derived by comparing it with the table's wild-type CDR3 ASSPTGGSPSPLH | 6.69
39 | […] (CDR3 as printed); G7A derived by comparing it with the table's wild-type CDR3 ASSPTGGSPSPLH | 0
40 | […] (CDR3 as printed); S3K derived by comparing it with the table's wild-type CDR3 ASSPTGGSPSPLH | 0
41 | […] (CDR3 as printed); P9I derived by comparing it with the table's wild-type CDR3 ASSPTGGSPSPLH | 0
42 | […] (CDR3 as printed); H13S derived by comparing it with the table's wild-type CDR3 ASSPTGGSPSPLH | 7.33
43 | […] (CDR3 as printed); A1R derived by comparing it with the table's wild-type CDR3 ASSPTGGSPSPLH | 0
44 | […] (CDR3 as printed); P9A derived by comparing it with the table's wild-type CDR3 ASSPTGGSPSPLH | 4.97
45 | […] (CDR3 as printed); P11M derived by comparing it with the table's wild-type CDR3 ASSPTGGSPSPLH | 7.79
46 | […] (CDR3 as printed); S10A derived by comparing it with the table's wild-type CDR3 ASSPTGGSPSPLH | 10.5
47 | […] (CDR3 as printed); P4N derived by comparing it with the table's wild-type CDR3 ASSPTGGSPSPLH | 1.25
48 | […] (CDR3 as printed); G7T derived by comparing it with the table's wild-type CDR3 ASSPTGGSPSPLH | 0
49 | […] (CDR3 as printed); S10C derived by comparing it with the table's wild-type CDR3 ASSPTGGSPSPLH | 0
50 | […] (CDR3 as printed); S3F derived by comparing it with the table's wild-type CDR3 ASSPTGGSPSPLH | 0

Row | Variant | enrichment
51 | […] (CDR3 as printed); H13D derived by comparing it with the table's wild-type CDR3 ASSPTGGSPSPLH | 8.55
52 | […] (CDR3 as printed); T5M derived by comparing it with the table's wild-type CDR3 ASSPTGGSPSPLH | 7.93
53 | […] (CDR3 as printed); T5F derived by comparing it with the table's wild-type CDR3 ASSPTGGSPSPLH | 12.8
54 | […] (CDR3 as printed); S3N derived by comparing it with the table's wild-type CDR3 ASSPTGGSPSPLH | 4.09
55 | […] (CDR3 as printed); P9F derived by comparing it with the table's wild-type CDR3 ASSPTGGSPSPLH | 0
56 | […] (CDR3 as printed); G7Y derived by comparing it with the table's wild-type CDR3 ASSPTGGSPSPLH | 4.27
57 | […] (CDR3 as printed); S3D derived by comparing it with the table's wild-type CDR3 ASSPTGGSPSPLH | 3.32
58 | […] (CDR3 as printed); G7M derived by comparing it with the table's wild-type CDR3 ASSPTGGSPSPLH | 0
59 | […] (CDR3 as printed); G7N derived by comparing it with the table's wild-type CDR3 ASSPTGGSPSPLH | 0
60 | […] (CDR3 as printed); H13T derived by comparing it with the table's wild-type CDR3 ASSPTGGSPSPLH | 5.47
61 | […] (CDR3 as printed); S8E derived by comparing it with the table's wild-type CDR3 ASSPTGGSPSPLH | 0
62 | […] (CDR3 as printed); S8V derived by comparing it with the table's wild-type CDR3 ASSPTGGSPSPLH | 1.71
63 | […] (CDR3 as printed); G7S derived by comparing it with the table's wild-type CDR3 ASSPTGGSPSPLH | 0
64 | […] (CDR3 as printed); G6E derived by comparing it with the table's wild-type CDR3 ASSPTGGSPSPLH | 0
65 | […] (CDR3 as printed); G6S derived by comparing it with the table's wild-type CDR3 ASSPTGGSPSPLH | 10.5
66 | […] (CDR3 as printed); L12C derived by comparing it with the table's wild-type CDR3 ASSPTGGSPSPLH | 4.3
67 | […] (CDR3 as printed); S3P derived by comparing it with the table's wild-type CDR3 ASSPTGGSPSPLH | 0
68 | […] (CDR3 as printed); T5Y derived by comparing it with the table's wild-type CDR3 ASSPTGGSPSPLH | 15.6
69 | […] (CDR3 as printed); P11C derived by comparing it with the table's wild-type CDR3 ASSPTGGSPSPLH | 6.3
70 | […] (CDR3 as printed); H13P derived by comparing it with the table's wild-type CDR3 ASSPTGGSPSPLH | 0
71 | […] (CDR3 as printed); P11Q derived by comparing it with the table's wild-type CDR3 ASSPTGGSPSPLH | 5.97
72 | […] (CDR3 as printed); A1S derived by comparing it with the table's wild-type CDR3 ASSPTGGSPSPLH | 4.29
73 | […] (CDR3 as printed); P11T derived by comparing it with the table's wild-type CDR3 ASSPTGGSPSPLH | 0

Same assay, conditions: with HLA-A*02:01 with peptide … (NLV 3-1, the original bait), tetramers 1 µg/mL, 30 min on ice, DP and SW gates expanded about 10 days between rounds ('two to three rounds of selection' in the Methods), gate SP: higher = more of the variant in the gate that binds the original peptide and not the novel one = retained original binding. Fold enrichment of the CDR3 variant in one FACS gate of a two-tetra, unresolved parent, parent is a CDR3 fragment, zero in all gates, scale: fold enrichment, numbering: …

Row | Variant | enrichment
74 | […] (CDR3 as printed); G7P derived by comparing it with the table's wild-type CDR3 ASSPTGGSPSPLH | 0

Variants of: B2
Test: as above
Conditions: with both tetramers (double-negative gate, binds neither): HLA-A*02:01 with … and with …, tetramers 1 µg/mL, 30 min on ice, SP, DP and SW gates expanded about 10 days between rounds ('two to three rounds of selection' in the Methods), gate DN: OPPOSITE: higher = more of the variant in the gate that binds neither peptide = LESS binding (or no expression; inferred). Fold enrichment of the CDR3 variant in one FACS gate of a two-tetram, unresolved parent, parent is a CDR3 fragment, scale: fold enrichment, numbering: sequential-on-construct, sequence starts at 1

Row | Variant | enrichment
75 | […] (CDR3 as printed); A1G derived by comparing it with the table's wild-type CDR3 AGPMKTSYDKVI | 0.876
76 | […] (CDR3 as printed); A1C derived by comparing it with the table's wild-type CDR3 AGPMKTSYDKVI | 0.8
77 | […] (CDR3 as printed); A1F derived by comparing it with the table's wild-type CDR3 AGPMKTSYDKVI | 0.884
78 | […] (CDR3 as printed); A1E derived by comparing it with the table's wild-type CDR3 AGPMKTSYDKVI | 0.767
79 | […] (CDR3 as printed); A1D derived by comparing it with the table's wild-type CDR3 AGPMKTSYDKVI | 0.746
80 | […] (CDR3 as printed); A1H derived by comparing it with the table's wild-type CDR3 AGPMKTSYDKVI | 0.735

Same assay, conditions: with both tetramers (double-positive gate): HLA-A*02:01 with … and with …, tetramers 1 µg/mL, 30 min on ice, SP, DP and SW gates expanded about 10 days between rounds ('two to three rounds of selection' in the Methods), gate DP: higher = more of the variant in the gate that binds both peptides. Fold enrichment of the CDR3 variant in one FACS gate of a two-tetramer stain. SP/DP/SW gates were expanded and re-sorted bef, unresolved parent, parent is a CDR3 fragment, scale: fold enrichment, numbering: sequential-on-construct, sequence starts at 1

Row | Variant | enrichment
81 | […] (CDR3 as printed); A1G derived by comparing it with the table's wild-type CDR3 AGPMKTSYDKVI | 0
82 | […] (CDR3 as printed); A1C derived by comparing it with the table's wild-type CDR3 AGPMKTSYDKVI | 0
83 | […] (CDR3 as printed); A1F derived by comparing it with the table's wild-type CDR3 AGPMKTSYDKVI | 0
84 | […] (CDR3 as printed); A1E derived by comparing it with the table's wild-type CDR3 AGPMKTSYDKVI | 0
85 | […] (CDR3 as printed); A1D derived by comparing it with the table's wild-type CDR3 AGPMKTSYDKVI | 0
86 | […] (CDR3 as printed); A1H derived by comparing it with the table's wild-type CDR3 AGPMKTSYDKVI | 0

From PMC13397619
